One may read the Kd as the free concentration of one partner at which half of the binding sites on the other are occupied at equilibrium, for simple one-to-one binding. Lower therefore signals higher affinity.

The labels stand for the following.
B1: human WT c-Myb TAD (residues 275–327) (domain or fragment, UniProt P10242 275-327, looked up)
chain: PAAAAIQRHYNDEDPEKEKRIKELELLLMSTENELKGQQVLPTQNHTCSYPGW
B2: c-Myb TAD E292D (domain or fragment, human, UniProt P10242 275-327, looked up)
chain: PAAAAIQRHYNDEDPEKDKRIKELELLLMSTENELKGQQVLPTQNHTCSYPGW
B3: c-Myb TAD P289A/P316A (domain or fragment, human, UniProt P10242 275-327, looked up)
chain: PAAAAIQRHYNDEDAEKEKRIKELELLLMSTENELKGQQVLATQNHTCSYPGW
B4: c-Myb TAD S304A (domain or fragment, human, UniProt P10242 275-327, looked up)
chain: PAAAAIQRHYNDEDPEKEKRIKELELLLMATENELKGQQVLPTQNHTCSYPGW
B5: c-Myb TAD L300G (domain or fragment, human, UniProt P10242 275-327, looked up)
chain: PAAAAIQRHYNDEDPEKEKRIKELEGLLMSTENELKGQQVLPTQNHTCSYPGW
B6: c-Myb TAD P289A (domain or fragment, human, UniProt P10242 275-327, looked up)
chain: PAAAAIQRHYNDEDAEKEKRIKELELLLMSTENELKGQQVLPTQNHTCSYPGW
B7: c-Myb TAD L300V (domain or fragment, human, UniProt P10242 275-327, looked up)
chain: PAAAAIQRHYNDEDPEKEKRIKELEVLLMSTENELKGQQVLPTQNHTCSYPGW
B8: c-Myb TAD N307P (domain or fragment, human, UniProt P10242 275-327, looked up)
chain: PAAAAIQRHYNDEDPEKEKRIKELELLLMSTEPELKGQQVLPTQNHTCSYPGW
B9: c-Myb TAD S304G (domain or fragment, human, UniProt P10242 275-327, looked up)
chain: PAAAAIQRHYNDEDPEKEKRIKELELLLMGTENELKGQQVLPTQNHTCSYPGW
B10: c-Myb TAD S304V (domain or fragment, human, UniProt P10242 275-327, looked up)
chain: PAAAAIQRHYNDEDPEKEKRIKELELLLMVTENELKGQQVLPTQNHTCSYPGW
B11: c-Myb TAD N307V (domain or fragment, human, UniProt P10242 275-327, looked up)
chain: PAAAAIQRHYNDEDPEKEKRIKELELLLMSTEVELKGQQVLPTQNHTCSYPGW
B12: c-Myb TAD L300A (domain or fragment, human, UniProt P10242 275-327, looked up)
chain: PAAAAIQRHYNDEDPEKEKRIKELEALLMSTENELKGQQVLPTQNHTCSYPGW
B13: c-Myb TAD K296H (domain or fragment, human, UniProt P10242 275-327, looked up)
chain: PAAAAIQRHYNDEDPEKEKRIHELELLLMSTENELKGQQVLPTQNHTCSYPGW
B14: c-Myb TAD G311A (domain or fragment, human, UniProt P10242 275-327, looked up)
chain: PAAAAIQRHYNDEDPEKEKRIKELELLLMSTENELKAQQVLPTQNHTCSYPGW
B15: c-Myb TAD K293H (domain or fragment, human, UniProt P10242 275-327, looked up)
chain: PAAAAIQRHYNDEDPEKEHRIKELELLLMSTENELKGQQVLPTQNHTCSYPGW
B16: c-Myb TAD L300P (domain or fragment, human, UniProt P10242 275-327, looked up)
chain: PAAAAIQRHYNDEDPEKEKRIKELEPLLMSTENELKGQQVLPTQNHTCSYPGW
B17: c-Myb TAD S304P (domain or fragment, human, UniProt P10242 275-327, looked up)
chain: PAAAAIQRHYNDEDPEKEKRIKELELLLMPTENELKGQQVLPTQNHTCSYPGW
B18: c-Myb TAD N307G (domain or fragment, human, UniProt P10242 275-327, looked up)
chain: PAAAAIQRHYNDEDPEKEKRIKELELLLMSTEGELKGQQVLPTQNHTCSYPGW
B19: c-Myb TAD N307A (domain or fragment, human, UniProt P10242 275-327, looked up)
chain: PAAAAIQRHYNDEDPEKEKRIKELELLLMSTEAELKGQQVLPTQNHTCSYPGW

In the assay the target is KIX domain of human CBP (residues 586–672) (human, UniProt Q92793 586-672). The assay can be described thus: ITC. A general note: Isothermal titration calorimetry measures the heat released or taken up as one component is titrated into another.
Sequence of KIX domain of human CBP (residues 586–672) (Q92793 586-672): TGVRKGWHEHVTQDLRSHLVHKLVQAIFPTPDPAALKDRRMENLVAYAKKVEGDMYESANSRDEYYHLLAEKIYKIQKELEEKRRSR
In turn, B1 gave a Kd of 500 ± 30 nM and a dH of -10.5 ± 0.4 kcal/mol.
In the same order, the values of B2 are 630 ± 20 nM and -11.22 ± 0.05 kcal/mol.
As to B3, the affinity, expressed as Kd, was 530 ± 20 nM and the dH was -9.81 ± 0.1 kcal/mol.
The corresponding values for B4 are 380 ± 40 nM and -6.94 ± 0.51 kcal/mol.
In the same order, the values of B5 are 2240 ± 20 nM and -11.33 ± 0.04 kcal/mol.
The corresponding values for B6 are 620 ± 20 nM and -10.2 ± 0.27 kcal/mol.
With B7, the equilibrium dissociation constant (Kd) turned out to be 820 ± 50 nM and the dH was -11.38 ± 0.11 kcal/mol.
In the same order, the values of B8 are 950 ± 70 nM and -8.97 ± 0.32 kcal/mol.
The corresponding values for B9 are 710 ± 130 nM and -13.3 ± 2.69 kcal/mol.
The corresponding values for B10 are 1490 ± 290 nM and -8.39 ± 0.93 kcal/mol.
In turn, B11 had a dissociation constant (Kd) of 390 nM and a dH of -8.44 ± 0.04 kcal/mol.
For the molecule B12, the Kd came to 670 ± 80 nM and the dH was -9.26 ± 0.39 kcal/mol.
In the same order, the values of B13 are 870 ± 50 nM and -13.8 ± 0.48 kcal/mol.
In turn, B14 showed a Kd of 460 ± 30 nM and a dH of -10.1 ± 0.26 kcal/mol.
The corresponding values for B15 are 780 ± 60 nM and -11.1 ± 2.1 kcal/mol.
In the same order, the values of B16 are 290000 ± 101000 nM and -1.34 ± 0.29 kcal/mol.
With B17, the Kd turned out to be 3450 ± 500 nM and the dH was -7.35 ± 0.97 kcal/mol.
Take B18: binding was characterised by a dissociation constant (Kd) of 610 ± 40 nM and the dH is -9.26 ± 0.23 kcal/mol.
In the same order, the values of B19 are 410 ± 70 nM and -8.29 ± 0.6 kcal/mol.

Values taken from PMC6082395 (Journal of molecular biology, 2018).
